Measurements as given in paper PMC3785425.
pKd: −log10 of the molar value.

Experiments:
[1] = molecular target: NKTT120 (human (humanized antibody)); assay: SPR; Biacore 3000; NKTT120 immobilised on the chip; FcγRI, FcγRIIIa or C1q as analyte at six different concentrations; BiaEvaluation software
[2] = molecular target: NKTT120 (human (humanized antibody))

Chain of NKTT120 (human (humanized antibody)) (heavy, as listed by the source, chain 1 of 2): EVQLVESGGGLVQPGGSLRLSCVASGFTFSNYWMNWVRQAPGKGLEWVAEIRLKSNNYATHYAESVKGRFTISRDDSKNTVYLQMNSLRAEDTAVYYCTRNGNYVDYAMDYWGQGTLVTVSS
Chain of NKTT120 (human (humanized antibody)) (light, as listed by the source, chain 2 of 2): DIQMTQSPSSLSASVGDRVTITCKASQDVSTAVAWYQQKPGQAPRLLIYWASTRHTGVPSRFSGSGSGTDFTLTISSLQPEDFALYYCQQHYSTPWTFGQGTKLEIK
Chain of FcγRIIIa (P08637 17-254): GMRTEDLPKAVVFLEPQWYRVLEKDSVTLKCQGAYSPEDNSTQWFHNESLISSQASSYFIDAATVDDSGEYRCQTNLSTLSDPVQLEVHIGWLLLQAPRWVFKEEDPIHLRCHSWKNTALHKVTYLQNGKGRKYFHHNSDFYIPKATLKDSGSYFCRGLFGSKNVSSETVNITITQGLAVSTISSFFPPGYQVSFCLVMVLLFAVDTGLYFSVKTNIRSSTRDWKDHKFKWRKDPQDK
Chain of FcγRI (P12314 16-374): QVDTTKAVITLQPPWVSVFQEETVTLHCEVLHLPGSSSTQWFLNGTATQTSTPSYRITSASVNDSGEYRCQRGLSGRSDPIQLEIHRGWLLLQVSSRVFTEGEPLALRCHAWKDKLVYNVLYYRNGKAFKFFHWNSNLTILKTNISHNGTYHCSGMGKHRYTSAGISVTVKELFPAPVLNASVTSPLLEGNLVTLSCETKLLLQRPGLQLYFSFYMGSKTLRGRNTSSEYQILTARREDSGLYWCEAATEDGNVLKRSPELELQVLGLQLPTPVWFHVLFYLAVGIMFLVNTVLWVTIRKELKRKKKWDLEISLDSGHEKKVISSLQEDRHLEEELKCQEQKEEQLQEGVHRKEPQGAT

pKd [1]	Substance	ADCC, cell killing of iTCR-expressing target cells by CD16-transduced NK-92 effector cells (E:T 60:1), NKTT120 at 1 and 20 µg/ml (34% to 44%) [2] [%]
7.92	FcγRI (from UniProt P12314 16-374) (receptor)	
6.91	FcγRIIIa (from UniProt P08637 17-254) (receptor)	44
